The text below walks through data of the supplement of paper PMC7877785.

± gives the uncertainty stated by the source.

The series is described as follows: self-splicing fitness, log relative to wild type (ln ratio); higher = more splicing; Tetrahymena group I intron in knt gene, E. coli kanamycin selection, DiMSum; sequences stand for … in CUCUCU…GGAGGGAAAAGUUAUCAGGCAUGCACCUGGUAGCUAGUCUUUAAACCAAUAGAUUGCAUCGGUUUAAAAGGCAAGACCGUCAAAUUGCGGGAAAGGGGUCAACAGCCGUUCAGUACCAAGUCUCAGGGGAAACUUUGAGAUGGCCUUGCAAAGGGUAUGGUAAUAAGCUGACGGACAUGGUCCUAACCACGCAGCCAAGUCCUAAGUCAACAGAUCUUCUGUUGAUAUGGAUGCAGUUCACAGACUAAAUGUCGGUCGGGGAAGAUGUAUUCUUCUCAUAAGAUAUAGUCGGACCUCUCCUUAAUGGGAGCUAGCGGAUGAAGUGAUGCAACACUGGAGCCGCUGGGAACUAAUUUGUAUGCGAAAGUAUAUUGAUUAGUUUUGGAGUACUCGUGGUCG
The method in brief:
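DiMSum derived fitness as the error-weighted combination of fold changes across replicates, kanamycin versus no kanamycin, normalised to wild type. E. coli BL21(DE3) held the library, which randomised all eight P1ex-region intron nucleotides within the knt kanamycin-resistance gene on pET-22b(+). Six replicate transformations grew overnight at 37°C or 30°C on LB agar with or without 25 μg/mL kanamycin, also containing 100 μg/mL carbenicillin, 50 μM IPTG and 0.2% rhamnose, and pooled colonies were amplicon-sequenced on an Illumina HiSeq 2500.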

In the case of AUUAAGCAAUAUUACGUUUU, the “self-splicing fitness (ln)” value runs as follows: (30 °C) -2.27 ± 0.11; (37 °C) -1.81 ± 0.12.
On the same counts, the results for UUACAGCAAUAUUACGACCU are -1.38 ± 0.18 and -1.25 ± 0.18.
The like results for GAUGAGCAAUAUUACGUGAU were, in that order, -3.66 ± 0.28 and -2.3 ± 0.24.
On the same counts, the results for AACGAGCAAUAUUACGUUCU are -2.19 ± 0.14 and -1.93 ± 0.2.
Consider CGGCAGCAAUAUUACGCUUA, for which the “self-splicing fitness (ln)” value by setting is: (30 °C) -0.963 ± 0.071; (37 °C) -0.184 ± 0.073.
The like results for CUCUAGCAAUAUUACGCCGU were, in that order, -2.12 ± 0.27 and -3.98 ± 0.39.
Regarding AAAUAGCAAUAUUACGUGAC, the “self-splicing fitness (ln)” value (30 °C) was -1.53 ± 0.2.
Turning to GAAAAGCAAUAUUACGCUCA, the “self-splicing fitness (ln)” value by setting is: (30 °C) -0.514 ± 0.11; (37 °C) 0.0911 ± 0.14.
On to UCAUAGCAAUAUUACGGAUA, for which the “self-splicing fitness (ln)” value is, setting by setting: (30 °C) -1.51 ± 0.23; (37 °C) -2.59 ± 0.33.
In the case of UCGUAGCAAUAUUACGACUC, for the setting “37 °C”, the “self-splicing fitness (ln)” value was -1.34 ± 0.31.
With CACCAGCAAUAUUACGUCAA, the “self-splicing fitness (ln)” value was -3.64 ± 0.42 (30 °C) and -2.31 ± 0.19 (37 °C).
Consider GAGGAGCAAUAUUACGCUCC, for which, for the setting “37 °C”, the “self-splicing fitness (ln)” value is -0.714 ± 0.48.
Turning to CCGGAGCAAUAUUACGUAUG, the “self-splicing fitness (ln)” value is -1.41 ± 0.071 (30 °C) and -0.561 ± 0.083 (37 °C).
UGAUAGCAAUAUUACGUACA: the “self-splicing fitness (ln)” value (30 °C) was -0.211 ± 0.083 and the “self-splicing fitness (ln)” value (37 °C) was -0.0617 ± 0.12.
On the same counts, the results for AUUAAGCAAUAUUACGGCGG are -1.18 ± 0.16 and -0.145 ± 0.18.
On to GGGAAGCAAUAUUACGGUCU, for which the “self-splicing fitness (ln)” value is -1.58 ± 0.086 (30 °C) and 0.382 ± 0.11 (37 °C).
On the same counts, the results for GGAAAGCAAUAUUACGAAAC are -1.37 ± 0.13 and -0.659 ± 0.17.
On the same counts, the results for AUAUAGCAAUAUUACGAACA are -0.789 ± 0.2 and -0.183 ± 0.21.
The like results for CGUCAGCAAUAUUACGGUUA were, in that order, -2.25 ± 0.12 and -0.874 ± 0.091.
For UCUAAGCAAUAUUACGCAAC, the “self-splicing fitness (ln)” value reads like this: (30 °C) -3.54 ± 0.17; (37 °C) -1.32 ± 0.2.
The like results for GCAUAGCAAUAUUACGGGCG were, in that order, -1.84 ± 0.12 and -1.09 ± 0.11.
On the same counts, the results for GCCCAGCAAUAUUACGGCUC are -0.866 ± 0.11 and -0.219 ± 0.14.
On the same counts, the results for UAGUAGCAAUAUUACGUUCC are -4.21 ± 0.35 and -0.984 ± 0.19.
With UAGCAGCAAUAUUACGUGGU, the “self-splicing fitness (ln)” value runs as follows: (30 °C) -3.87 ± 0.2; (37 °C) -2.79 ± 0.16.
Turning to ACCCAGCAAUAUUACGUCCU, the “self-splicing fitness (ln)” value runs as follows: (30 °C) -0.73 ± 0.075; (37 °C) -0.51 ± 0.089.
The like results for CACUAGCAAUAUUACGUUGG were, in that order, -2.27 ± 0.11 and -2.03 ± 0.16.
On the same counts, the results for GGGAAGCAAUAUUACGACUC are -1.17 ± 0.1 and -0.341 ± 0.13.
On the same counts, the results for GGCAAGCAAUAUUACGGCAU are -0.207 ± 0.043 and 0.531 ± 0.06.
In the case of CAUGAGCAAUAUUACGCACG, the “self-splicing fitness (ln)” value (30 °C) is -0.622 ± 0.097 and the “self-splicing fitness (ln)” value (37 °C) is -0.67 ± 0.11.
The like results for CCCAAGCAAUAUUACGACAU were, in that order, -3.83 ± 0.021 and -2.8 ± 0.037.
The like results for UCCCAGCAAUAUUACGUGUA were, in that order, 0.0644 ± 0.061 and -0.0313 ± 0.073.
On the same counts, the results for GCGCAGCAAUAUUACGAUAA are -1.85 ± 0.11 and -0.604 ± 0.14.
On to ACACAGCAAUAUUACGAGAA, for which the “self-splicing fitness (ln)” value is -3.53 ± 0.37 (30 °C) and -2.54 ± 0.24 (37 °C).
In the case of CCGUAGCAAUAUUACGGACA, the “self-splicing fitness (ln)” value (30 °C) is -1.88 ± 0.35.
For UGAAAGCAAUAUUACGGCAG, the “self-splicing fitness (ln)” value is -0.742 ± 0.094 (30 °C) and -0.105 ± 0.11 (37 °C).
On the same counts, the results for GGACAGCAAUAUUACGGGAU are -2.05 ± 0.087 and -0.814 ± 0.1.
The like results for GAGCAGCAAUAUUACGUCGG were, in that order, -4.09 ± 0.31 and -3.07 ± 0.28.
On the same counts, the results for UUCUAGCAAUAUUACGUCCG are -1.45 ± 0.25 and -0.81 ± 0.31.
